Results on two molecules are retold here after patent publication US20190233519A1 (NANJING LEGEND BIOTECH, published 2019).

The target of test [1] is T1, biotin-labeled hCTLA-4/Fc protein (human, UniProt P16410 37-161, biotin label in the FACS competition assays (sites not given)).
T1 construct: also called CTLA-4 ECD (CTLA-4-Fc); CTLA-4-Fc (GenScript, Z03373-50)
Put plainly: FACS competition, biotin hCTLA-4/Fc on CHO cells expressing human B7-1.

The next test addresses T2, CTLA-4-His protein (Homo sapiens (Human), UniProt P16410 37-161).
T2 construct: also called CTLA-4-His fusion protein; not shown: His tag
Kind of test: SPR, antibody immobilised on CM5, CTLA-4-His as analyte. In general terms: SPR reads the build-up and loss of mass on a sensor chip optically.

T2 sequence (P16410 37-161 limits assumed): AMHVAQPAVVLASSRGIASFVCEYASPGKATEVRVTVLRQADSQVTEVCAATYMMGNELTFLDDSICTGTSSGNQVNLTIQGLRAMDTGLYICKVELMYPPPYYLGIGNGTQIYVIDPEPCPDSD
T1 sequence (P16410 37-161): as the sequence (P16410 37-161 limits assumed) above

B1: A34311 sdAb (VHH)
VHH: QVKLEESGGGLVLPGESLRLSCEASGRTITTITMGWFRQAPGKERQFVASHSWTDNNPYYADSVKGRFIISRDNAGNRVYLQMHSLEPEDTAVYYCAATARRSFVGRQWYTEARQYDYWGQGTQVTVSS
notes: also called A34311 (WT)
The term EC50 denotes the concentration that produces a half-maximal response. As for B1, in test [1], the EC50 is about 14.5 nM.

B2: BCP-311K (A34311-9GS-Keytruda) (bispecific antibody, human IgG4 S228P, kappa)
heavy: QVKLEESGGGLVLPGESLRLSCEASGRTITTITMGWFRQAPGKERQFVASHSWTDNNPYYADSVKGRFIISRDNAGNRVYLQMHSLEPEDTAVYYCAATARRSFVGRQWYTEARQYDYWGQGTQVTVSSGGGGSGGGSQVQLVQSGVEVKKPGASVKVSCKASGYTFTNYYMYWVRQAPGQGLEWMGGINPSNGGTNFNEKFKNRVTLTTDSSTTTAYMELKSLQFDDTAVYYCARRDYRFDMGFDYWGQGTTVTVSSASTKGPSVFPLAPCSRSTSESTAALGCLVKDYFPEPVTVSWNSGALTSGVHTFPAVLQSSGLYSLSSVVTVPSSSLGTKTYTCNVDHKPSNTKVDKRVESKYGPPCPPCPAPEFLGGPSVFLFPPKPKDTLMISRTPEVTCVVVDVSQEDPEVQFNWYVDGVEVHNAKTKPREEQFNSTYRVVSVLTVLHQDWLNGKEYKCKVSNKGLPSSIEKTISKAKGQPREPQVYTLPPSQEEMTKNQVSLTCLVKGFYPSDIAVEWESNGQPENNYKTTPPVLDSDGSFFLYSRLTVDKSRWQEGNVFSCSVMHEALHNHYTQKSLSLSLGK
light: EIVLTQSPATLSLSPGERATLSCRASKGVSTSGYSYLHWYQQKPGQAPRLLIYLASYLESGVPARFSGSGSGTDFTLTISSLEPEDFAVYYCQHSRDLPLTFGGGTKVEIKRTVAAPSVFIFPPSDEQLKSGTASVVCLLNNFYPREAKVQWKVDNALQSGNSQESVTEQDSKDSTYSLSSTLTLSKADYEKHKVYACEVTHQGLSSPVTKSFNRGEC
For the molecule B2, the binding result with CTLA-4-His protein is “binds”.
